# In patent publication US20220033481A1 (NANJING LEGEND BIOTECH, published 2022):
# B1: AS01299 sdAb (VHH)
# VHH: QVQLVESGGGLVQPGGSLRLSCAASGSIFSIATMAWYRQAPGKQRELVAGITRSGSTNYRDSVKGRFTISRDNAKNTMYLQMNSLKPEDTAVYYCTDYSSRYYHDYWGQGTQVTVSS
# notes: Llama sdAb made in E. coli with a C-terminal 6xHis tag; also called sdAb AS01299
# B2: AS01299VH3a-L47 (VHH)
# VHH: EVQLVESGGGLVQPGGSLRLSCAASGSIFSIATMAWYRQAPGKGLEWVAGITRSGSTNYRDSVKGRFTISRDNSKNTMYLQMNSLRAEDTAVYYCTDYSSRYYHDYWGQGTLVTVSS
# notes: Humanized variant of AS01299, C-terminal 6xHis tag; also called AS01299VH3a-L47-2
# B3: AS01299VH4-L47 (VHH)
# VHH: EVQLVESGGGLVQPGGSLRLSCAASGSIFSIATMAWYRQAPGKGLEWVSGITRSGSTNYRDSVKGRFTISRDNSKNTLYLQMNSLRAEDTAVYYCTDYSSRYYHDYWGQGTLVTVSS
# notes: Humanized variant of AS01299, C-terminal 6xHis tag; also called AS01299VH4-L47-2
# B4: AS01299VH3a (VHH)
# VHH: EVQLVESGGGLVQPGGSLRLSCAASGSIFSIATMAWYRQAPGKGLELVAGITRSGSTNYRDSVKGRFTISRDNSKNTMYLQMNSLRAEDTAVYYCTDYSSRYYHDYWGQGTLVTVSS
# notes: Humanized variant of AS01299, C-terminal 6xHis tag
# B5: AS01299VH3a-M78 (VHH)
# VHH: EVQLVESGGGLVQPGGSLRLSCAASGSIFSIATMAWYRQAPGKGLELVAGITRSGSTNYRDSVKGRFTISRDNSKNTLYLQMNSLRAEDTAVYYCTDYSSRYYHDYWGQGTLVTVSS
# notes: as for B4
# B6: AS01274 sdAb (VHH)
# VHH: QVQLVESGGGLVQPGGSLRLSCVASGSIASIATMAWYRQAPGQQRELVAGITRGGSTKYADSVKGRFTISRDNAKNTLYLQMNSLKPDDTAVYYCTDYSRKYYQDYWGQGTQVTVSS
# notes: Llama sdAb made in E. coli with a C-terminal 6xHis tag; also called sdAb AS01274
# B7: AS01299VH3a-A49 (VHH)
# VHH: EVQLVESGGGLVQPGGSLRLSCAASGSIFSIATMAWYRQAPGKGLELVSGITRSGSTNYRDSVKGRFTISRDNSKNTMYLQMNSLRAEDTAVYYCTDYSSRYYHDYWGQGTLVTVSS
# notes: as for B4
# B8: AS01299VH4 (VHH)
# VHH: EVQLVESGGGLVQPGGSLRLSCAASGSIFSIATMAWYRQAPGKGLELVSGITRSGSTNYRDSVKGRFTISRDNSKNTLYLQMNSLRAEDTAVYYCTDYSSRYYHDYWGQGTLVTVSS
# notes: as for B4
# B9: AS01274VHa (VHH)
# VHH: EVQLVESGGGLVQPGGSLRLSCAASGSIASIATMAWYRQAPGKGLELVAGITRGGSTKYADSVKGRFTISRDNSKNTLYLQMNSLRAEDTAVYYCTDYSRKYYQDYWGQGTLVTVSS
# notes: Humanized variant of AS01274, C-terminal 6xHis tag
# B10: AS01274VHa-A49 (VHH)
# VHH: EVQLVESGGGLVQPGGSLRLSCAASGSIASIATMAWYRQAPGKGLELVSGITRGGSTKYADSVKGRFTISRDNSKNTLYLQMNSLRAEDTAVYYCTDYSRKYYQDYWGQGTLVTVSS
# notes: as for B9
# Tests used:
# human transferrin [1] = target: T1, human transferrin (human, UniProt P02787 20-698); assay: SPR, BIAcore T200, human transferrin amine-coupled to CM5 chip, sdAb injected
# T1 sequence (P02787 20-698 limits assumed): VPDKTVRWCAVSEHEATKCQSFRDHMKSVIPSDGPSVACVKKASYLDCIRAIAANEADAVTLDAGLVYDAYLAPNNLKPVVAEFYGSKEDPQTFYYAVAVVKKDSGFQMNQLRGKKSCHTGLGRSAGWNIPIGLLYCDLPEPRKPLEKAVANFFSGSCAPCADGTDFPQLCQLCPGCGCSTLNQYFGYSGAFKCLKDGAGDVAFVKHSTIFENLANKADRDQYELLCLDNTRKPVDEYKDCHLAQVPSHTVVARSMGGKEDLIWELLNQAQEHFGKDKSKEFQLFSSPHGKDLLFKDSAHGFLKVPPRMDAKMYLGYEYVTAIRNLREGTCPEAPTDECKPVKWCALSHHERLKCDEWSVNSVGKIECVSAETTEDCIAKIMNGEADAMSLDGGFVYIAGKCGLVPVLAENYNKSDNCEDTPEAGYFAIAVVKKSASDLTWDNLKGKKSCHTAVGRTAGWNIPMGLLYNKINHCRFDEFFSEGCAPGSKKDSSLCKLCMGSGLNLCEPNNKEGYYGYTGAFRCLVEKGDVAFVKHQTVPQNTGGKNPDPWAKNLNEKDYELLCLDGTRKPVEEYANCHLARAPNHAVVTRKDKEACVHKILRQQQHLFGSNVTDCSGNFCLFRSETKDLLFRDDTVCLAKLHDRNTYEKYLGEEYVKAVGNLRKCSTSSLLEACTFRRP
# Procedure: Experiments were performed using a BIAcore T200 optical sensor platform and research grade CM5 sensor chips (GE Healthcare; Little Chalfont, United Kingdom). Human transferrin was immobilized on the sensor chip surface by standard amine coupling. All experiments were carried out in HEPES buffer [10 mM HEPES (pH 7.4), 150 mM NaCl, 3.4 mM EDTA, 0.005% Tween 20] at 25° C. […] The amount of bound analyte after subtraction from the blank control surface is shown as relative response units (RU). The double referenced sensorgrams from each injection series were analyzed for binding kinetics using BIA evaluation software (GE Healthcare). Dissociation constants (KDs) were calculated from the on- and off-rates (kₒₙ and koff, respectively), as determined by global fitting of the experimental data to a 1:1 Langmuir binding model (Chi²<1).
# [2] = target: T2, cynomolgus monkey transferrin (cynomolgus monkey, UniProt A0A2K5UXZ0 20-695); assay: SPR, BIAcore T200, cynomolgus monkey transferrin as ligand, sdAb as analyte
# T2 construct: also called cynomolgus transferrin
# [3] = target: T2, cynomolgus monkey transferrin; assay: SPR, BIAcore T200, sdAb amine-coupled to CM5 chip, transferrin injected
# Procedure: (§1) Experiments were performed using a BIAcore T200 optical sensor platform and research grade CM5 sensor chips (GE Healthcare). AS01274 sdAb and AS01299 sdAb were immobilized on the sensor chip surface by standard amine coupling. All experiments were carried out in HEPES buffer [10 mM HEPES (pH 7.4), 150 mM NaCl, 3.4 mM EDTA, 0.005% Tween 20] at 25° C. Human Transferrin and Cynomolgus monkey Transferrin were injected at serial dilutions ranging from 3.9 nM to 2000 nM at a flow rate of 30 μl/min unless otherwise indicated. The amount of bound analyte after subtraction from the blank control surface is shown as relative response units (RU). The double referenced sensorgrams from each injection series were analyzed for binding kinetics using BIA evaluation software (GE Healthcare). Dissociation constants (KDs) were calculated from the on- and off-rates (kₒₙ and koff, respectively), as determined by global fitting of the experimental data to a 1:1 Langmuir binding model (Chi²<1).
# human transferrin [4] = target: T1, human transferrin; assay: as above
# Procedure: as §1
Binder,Kd (human transferrin [1]),koff (human transferrin [1]),kon (human transferrin [1]),Kd [2],koff [2],kon [2],Kd [3],koff [3],kon [3],Kd (human transferrin [4]),koff (human transferrin [4]),kon (human transferrin [4])
B1,0.98 nM,0.0022 s⁻¹,2.2e+06 M⁻¹ s⁻¹,0.065 nM,0.00056 s⁻¹,8.6e+06 M⁻¹ s⁻¹,8.8 nM,0.00046 s⁻¹,52000 M⁻¹ s⁻¹,140 nM,0.0031 s⁻¹,22000 M⁻¹ s⁻¹
B2,3.7 nM,0.0025 s⁻¹,680000 M⁻¹ s⁻¹,0.053 nM,0.00048 s⁻¹,8.9e+06 M⁻¹ s⁻¹,,,,,,
B3,6 nM,0.0035 s⁻¹,590000 M⁻¹ s⁻¹,0.071 nM,0.00066 s⁻¹,9.3e+06 M⁻¹ s⁻¹,,,,,,
B4,1.3 nM,0.0011 s⁻¹,810000 M⁻¹ s⁻¹,0.057 nM,0.00028 s⁻¹,4.9e+06 M⁻¹ s⁻¹,,,,,,
B5,1.1 nM,0.0012 s⁻¹,1e+06 M⁻¹ s⁻¹,0.058 nM,0.0003 s⁻¹,5.2e+06 M⁻¹ s⁻¹,,,,,,
B6,0.09 nM,0.0003 s⁻¹,3.3e+06 M⁻¹ s⁻¹,0.0067 nM,8.9e-05 s⁻¹,1.3e+07 M⁻¹ s⁻¹,1.6 nM,4.4e-05 s⁻¹,27000 M⁻¹ s⁻¹,16 nM,0.00019 s⁻¹,12000 M⁻¹ s⁻¹
B7,2.4 nM,0.001 s⁻¹,420000 M⁻¹ s⁻¹,0.1 nM,0.00027 s⁻¹,2.6e+06 M⁻¹ s⁻¹,,,,,,
B8,1.1 nM,0.0011 s⁻¹,1e+06 M⁻¹ s⁻¹,0.054 nM,0.0003 s⁻¹,5.7e+06 M⁻¹ s⁻¹,,,,,,
B9,0.13 nM,0.0002 s⁻¹,1.5e+06 M⁻¹ s⁻¹,0.011 nM,8.1e-05 s⁻¹,7.3e+06 M⁻¹ s⁻¹,,,,,,
B10,0.11 nM,0.00016 s⁻¹,1.5e+06 M⁻¹ s⁻¹,0.009 nM,7.9e-05 s⁻¹,8.7e+06 M⁻¹ s⁻¹,,,,,,
